Results on 1 protein are retold here after publication PMC6526949 (Biochemistry, 2018).

The series concerns the molecule itself. Kind of series: SEC.

B1: Escherichia coli O-acetylserine sulfhydrylase isoenzyme B (CysM) (enzyme, UniProt P16703 1-303, looked up)
chain: MSTLEQTIGNTPLVKLQRMGPDNGSEVWLKLEGNNPAGSVKDRAALSMIVEAEKRGEIKPGDVLIEATSGNTGIALAMIAALKGYRMKLLMPDNMSQERRAAMRAYGAELILVTKEQGMEGARDLALEMANRGEGKLLDQFNNPDNPYAHYTTTGPEIWQQTGGRITHFVSSMGTTGTITGVSRFMREQSKPVTIVGLQPEEGSSIPGIRRWPTEYLPGIFNASLVDEVLDIHQRDAENTMRELAVREGIFCGVSSGGAVAGALRVAKANPDAVVVAIICDRGDRYLSTGVFGEEHFSQGAGI
modifications: PLP cofactor ligated through a Schiff base to the ε-amino group of Lysine-41 (PLP:CysM ratio approximately 0.57:1)
The stoichiometry N is the number of molecules, sites or subunits per partner or assembly. B1: the “stoichiometry N” value amounted to 2.
